Reference: the supplement of paper PMC9732359
± gives the uncertainty stated by the source.

Assay: protein stability index of a GFP-peptide fusion (yeast GPS) (PSI 1-4); higher = more stable; sorted into four equal gates, so the index is relative within each strain
Summary of the method: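 Plasmids in a pooled yeast library fused tiled 17-residue yeast protein peptides downstream of GFP and also expressed Cherry. Mid-log cultures grown without leucine were sorted into four equal gates by GFP/Cherry fluorescence ratio. Each gate's plasmids were PCR-amplified and Illumina-sequenced, and reads were matched to strains by barcodes. The protein stability index is derived by multiplying each gate's read frequency by its gate number and summing the results.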

Sequence	protein stability index (doa10∆)	protein stability index (pdr5∆)	protein stability index (san1∆)	protein stability index (ubr1∆)
NSGNSNSNSNQQSTDAD [RPT1]	2.59 ± 0.081	2.48 ± 0.081	2.48 ± 0.09	2.64 ± 0.052
STSGDPSEFHCLQDALD [SSN2]	3.07 ± 0.16	3.1 ± 0.12	3.08 ± 0.068	3.43 ± 0.11
AAIHAKRVTIQKKDIKL [HHT1]	2.92 ± 0.086	3.04 ± 0.12	3.14 ± 0.091	3.1 ± 0.075
DNMITGVTKGYKYKMRY [RPL9A]	3.07 ± 0.096	3.3 ± 0.14	2.92 ± 0.27	3.1 ± 0.067
FNTFWDEKGNEIKVGKQ [ARP9]	3.24 ± 0.099	2.53 ± 0.089	2.88 ± 0.089	2.52 ± 0.059
SQLQPQPQPQPQQQQQH [YDL088C/ASM4]	2.79 ± 0.087	2.95 ± 0.074	2.51 ± 0.13	2.88 ± 0.088
NNIVSVLTAGVNSVAIK [RPN11]	2.28 ± 0.075	2.26 ± 0.087	2.66 ± 0.078	1.97 ± 0.058
ASFGKNLQIRQLFNWCL [DSN1]	1.2 ± 0.064	1.44 ± 0.051	1.29 ± 0.15	2.33 ± 0.12
FEFGNMKATSNTLEEFE [FAS2]	3.18 ± 0.054	3.4 ± 0.08	3.13 ± 0.061	3.23 ± 0.058
ASKGIDRLSLQDRQQLL [ECM29]	3.08 ± 0.083	3.11 ± 0.07	3.19 ± 0.085	3.21 ± 0.056
DSSGVNDLHHSEKKYAE [RPN3]	2.69 ± 0.11	3.24 ± 0.16	2.88 ± 0.21	
SSVVSEPKKPSFTFASS [YOR098C/NUP1]	3 ± 0.049	3.12 ± 0.038	3.01 ± 0.044	2.92 ± 0.034
PQQNKTPFSFGTANNNS [YJL041W/NSP1]	3.28 ± 0.046	3.2 ± 0.038	3.12 ± 0.035	3.05 ± 0.034
DGLEKAAFNGVTFKDKY [FAS2]	1.94 ± 0.083	1.57 ± 0.096	1.85 ± 0.14	2.09 ± 0.12
NSNQQQNPKLFQTIFSK [SIN4]	1.98 ± 0.093	2.19 ± 0.069	3.11 ± 0.1	2.42 ± 0.082
CRRMILTHVDLIEKFLR [RPB10]	2.85 ± 0.21	1.46 ± 0.11		2.04 ± 0.099
DPQQVFDERIKFANQLH [RPN3]	1.68 ± 0.09	1.97 ± 0.12	1.41 ± 0.14	1.33 ± 0.075
MNECIADQDMEDEDMVD [ESC2]	3.18 ± 0.072	3.35 ± 0.11	3.3 ± 0.048	3.08 ± 0.058
SGLPTCDYYNTFLLNNK [RPN2]	2.94 ± 0.069	2.96 ± 0.071	2.68 ± 0.062	2.51 ± 0.069
LSISVPSDVNIDVMKSQ [SNU114]	2.86 ± 0.057	2.84 ± 0.057	2.57 ± 0.053	2.78 ± 0.044
NIALVSKLRNNIRSQLL [SRP54]	2.13 ± 0.069	2.56 ± 0.058	2.5 ± 0.053	2.61 ± 0.065
TKLDQVWGSETVASSKV [RPL4A]	2.72 ± 0.075	3 ± 0.1	2.84 ± 0.05	2.98 ± 0.044
LSLMLESPNYCNALIHI [SRB4]	1.52 ± 0.044	1.78 ± 0.035	1.72 ± 0.075	1.75 ± 0.035
PEELARILQQLKLDKII [RGR1]	2.51 ± 0.059	1.49 ± 0.05	3.15 ± 0.076	2.72 ± 0.063
FEFQYLTIGVKFFMKHG [SRB5]	1.18 ± 0.046	1.34 ± 0.047	1.21 ± 0.066	1.18 ± 0.035
LLSLINSTHLLPLQPIE [SNF12]	2.34 ± 0.053	2.46 ± 0.05	3.04 ± 0.052	2.4 ± 0.04
ERVMKNKVEENLEGLYL [RPT2]	3.12 ± 0.11	3.28 ± 0.067	3.07 ± 0.14	3.35 ± 0.12

Sequence	protein stability index (doa10∆)	protein stability index (pdr5∆)	protein stability index (san1∆)	protein stability index (ubr1∆)
NRPDNKNAQYHLLVKQG [RPN7]	2.86 ± 0.056	2.58 ± 0.053	2.79 ± 0.05	2.78 ± 0.036
TRRKRRQGRSNRRGMLA [SNF5]	2.51 ± 0.13	2.71 ± 0.14	2.86 ± 0.11	2.99 ± 0.11
ENESTNYQYKIQELRKL [MED7]	2.25 ± 0.054	2.61 ± 0.074	2.36 ± 0.074	2.69 ± 0.06
AGGGSNKSSVRPTGGAN [MED6]	2.93 ± 0.09	3.12 ± 0.1	2.79 ± 0.096	3.11 ± 0.077
PLLPIVEELMKKRRGSR [SNU114]	2.4 ± 0.11	2.79 ± 0.12	2.87 ± 0.074	2.83 ± 0.13
EARLFNIWGTVRTNRFD [ECM29]	2.61 ± 0.19	2.14 ± 0.15		2.32 ± 0.28
EGNQGSLQEDVSFDFNG [MED8]	3.17 ± 0.12	3.41 ± 0.085	3.23 ± 0.062	3.2 ± 0.07
YVDPETTYTYQQPNPLQ [ROX3]	2.33 ± 0.087	2.31 ± 0.099	2.02 ± 0.12	2.86 ± 0.12
DANLLGAEVLIKGSKLS [COR1]	2.94 ± 0.072	2.85 ± 0.079	2.63 ± 0.12	2.63 ± 0.042
QQQNASSKLYQMQQQQQ [GAL11]	1.76 ± 0.091	1.66 ± 0.073	1.5 ± 0.13	1.78 ± 0.064
LSSGENRYAFSQPTNST [SMC4]	3.22 ± 0.14	2.96 ± 0.11		2.85 ± 0.11
LESWWLVLGEVSKKELY [BRR2]	1.68 ± 0.16	1.39 ± 0.14	1.11 ± 0.17	
IQKGKFTLLDFKKQMQT [SRP54]	1.27 ± 0.13	1.85 ± 0.22	1.07 ± 0.21	1.7 ± 0.29
EFIAAVNNPQEETSHLL [RPN10]	2.33 ± 0.12	3 ± 0.091	3 ± 0.14	2.82 ± 0.068
SEENIGSGLLKLSEIIL [SWI1]	3.2 ± 0.074	3.02 ± 0.066	2.92 ± 0.048	3.37 ± 0.06
RSLLLSRVRADDLSTRF [RRP43]	2.89 ± 0.21	3.63 ± 0.17		2.92 ± 0.16
FLKKVMDTIQDKLINDV [ECM29]	3.08 ± 0.16	3.58 ± 0.2	2.95 ± 0.2	3.34 ± 0.15
ESYNQNDWKLETERLIS [SIN4]	3.4 ± 0.09	3.21 ± 0.14	3.29 ± 0.066	3.15 ± 0.11
QQQQQQQNPKFLQSQRQ [SWI1]	2.84 ± 0.048	2.82 ± 0.052	2.79 ± 0.045	3.25 ± 0.064
HIHKHVKDEAFDDLLKP [RET1]	3.12 ± 0.11	3.4 ± 0.12	3.25 ± 0.073	3.11 ± 0.15
VTIWYRAPELLLGARHY [SSN3]	1.9 ± 0.1	1.85 ± 0.096	2.07 ± 0.15	1.9 ± 0.072
TAPSSQRRVLLSAPLSK [RPL26A]	2.45 ± 0.045	2.31 ± 0.053	2.31 ± 0.055	2.18 ± 0.036
LNELETLIKKKQDEKKS [SMC2]	3.24 ± 0.087	3.27 ± 0.092	3.19 ± 0.063	2.91 ± 0.055
VQKDTAIIRLHPSIYTQ [POP1]	2.73 ± 0.29	2.19 ± 0.11		1.88 ± 0.14
GFSTGIGDTIADGPTMR [RPO21]	2.3 ± 0.13	3.15 ± 0.17	3.03 ± 0.094	2.99 ± 0.15
HHYNPKTKKLNLSAFKI [BRR2]	2.21 ± 0.062	2.4 ± 0.05	2.4 ± 0.055	2.4 ± 0.042
